Changes are numbered by the printed parent chain.

For data set [1], the target named is T1, His6::RhaR (1-159*) (Aspergillus nidulans (cDNA from strain AR198)) (UniProt A0A0A1I536).
T1 sequence: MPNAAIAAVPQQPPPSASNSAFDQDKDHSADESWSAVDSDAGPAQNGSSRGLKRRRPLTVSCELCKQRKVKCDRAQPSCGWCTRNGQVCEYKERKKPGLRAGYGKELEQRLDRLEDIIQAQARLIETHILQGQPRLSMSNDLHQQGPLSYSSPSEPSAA
The experiment in a line: EMSA. The following applies: 25 mM HEPES pH 7.9, 50 mM KCl, 5 mM MgCl2, 1 mM DTT, 0.1 mM EDTA, 1 ug salmon sperm DNA, 20 ul, 4 C 30 min; 5-8% native PAGE in 0.5x TBE at 4 C, ethidium …. For orientation: A gel shift assay detects complexes by their altered migration in electrophoresis.

In another data set the target is T2, His6::RhaR (1-159*) (Aspergillus nidulans (cDNA from strain …, UniProt A0A0A1I536)).
T2 sequence: T1 sequence
The experiment in a line: EMSA; 25 mM HEPES pH 7.9, 50 mM KCl, 5 mM MgCl2, 1 mM DTT, 0.1 mM EDTA, 1 ug salmon sperm DNA, 20 ul, 4 C 30 min; 5-8% native PAGE in 0.5x TBE at 4 C, ethidium bromide. The following applies: protein: recombinant; tags: N-terminal His6 (pQE-80L); chain copies: 2; blunt.

As for “AGATCTTCTCTGGGGAAGATCGACCGACCTGGTCCTGCAGAGCTCCAAGGCTTCCTCTCAGAAAGCCGATTAGTAGAAGCGGAGTCAAAGCAGGGTCAAGACGGACAATTAGAAGCCATGAATGGCGGATCCCAGCCCATGATCGCATACTGTGATCCAAAATCGACATAACTAAGTCACTTCCCTTCGCTTGTATCTGCCCAGCCATCCAACAACTCTA (double strand) [rhaAp 219 bp mut1]”, the binding result in data set [1] is reported as “binds more weakly”.

B1: 35-mer wild type (dsDNA)
DNA 1: AGATCTTCTCGGGGGAAGATCGACCGACCTGGTCC
DNA 2: GGACCAGGTCGGTCGATCTTCCCCCGAGAAGATCT
As to B1, in the data set with His6::RhaR (1-159*), the binding result is “binds”.

B2: 35-mer mut1 mut2 (dsDNA)
DNA 1: B1 DNA 1 with G11T, C25A
DNA 2: B1 DNA 2 with G11T, C25A
For B2, the binding result with His6::RhaR (1-159*) is recorded as “no binding”.

The values above are taken from publication PMC4245848, “The Aspergillus nidulans Zn(II)2Cys6 transcription factor AN5673/RhaR mediates L-rhamnose utilization and the production of α-L-rhamnosidases”.
